According to the supplement of paper PMC12042874:
± gives the uncertainty stated by the source.

Experiment: amyloid nucleation score (Sup35N fusion, yeast selection) (log enrichment); library NNK1; higher = more nucleation; inactive = no reads after selection
Method in brief: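 Sup35N was fused to peptides of 20 random codons and expressed in psi-negative yeast, which were induced with 100 μM copper sulfate for 24 hours and then grown on medium lacking adenine and uracil for 7 days at 30°C. Plasmid inserts from input and output were sequenced on Illumina. The nucleation score is the DiMSum log enrichment of output over input reads, centred on the mode score of non-aggregating sequences. Sequences with under 100 input reads were left out, and random libraries had three technical output replicates.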

In order of rising amyloid nucleation score:
1. SGGSLVFVCYGRNF  -1.35 ± 1.1
2. FSFISKIIESCYGDFLVGDA  -1.21 ± 0.61
3. LALVDAHK  -1.02 ± 1
4. NWGCFQYSGTGNRLGTNAPV  -0.999 ± 0.68
5. CYVMLINAEND  -0.796 ± 1.4
6. VGKELLLSLRYSNWVCLDWF  -0.715 ± 1.4
7. AWYWAMAIMRVSIKVWPLLL  -0.713 ± 0.7
8. ESSNLYYYRTSHKKKTTLCS  -0.639 ± 1.7
9. LFFMVLFNKSTEFERLFHIV  -0.633 ± 0.56
10. RWPTRNFQGTVRYAR  -0.62 ± 0.7
11. FHGDLA  -0.57 ± 0.26
12. MVIYR  -0.517 ± 0.75
13. RYPSLLWIFDFNYLLYLRFQ  -0.451 ± 0.25
14. AFRRCTKSFIL  -0.427 ± 1.9
15. MRDLK  -0.405 ± 0.53
16. FWTRCVFLLRGNSMWESCRG  -0.385 ± 0.9
17. LNLLYASWYYSFGVR  -0.194 ± 0.24
18. NHVYCVWMRMFMIYFNL  -0.17 ± 0.54
19. SFKYWNIRHKYFRTSLT  -0.152 ± 0.4
20. TCLISCRLPDKGHGSVT  -0.069 ± 0.44
21. DTGSFFVSVRLSAWVIPPCK  -0.063 ± 0.39
22. SVPQLVPNHFRVSWANHS  -0.05 ± 1.4
23. VFNWTHPWLSQH  -0.047 ± 0.78
24. AWAKFCCSD  -0.012 ± 1.1
25. GPSRRTLRGNFNHLVTYWCP  0.003 ± 0.46
26. GVIYS  0.077 ± 0.28
27. YWWDIRWGEAGSRERRVELG  0.078 ± 0.53
28. AICRLDVVWVT  0.135 ± 0.37
29. WASFGPLGAQVPDRRFIYMP  0.151 ± 0.81
30. MILLKCIYY  0.179 ± 0.39
31. IASFKWGFLMDYNLYVSSSG  0.261 ± 0.38
32. SSLQPLIFMRSIHLIVW  0.265 ± 0.75
33. TFQCCLDVCASVC  0.273 ± 0.46
34. LISNRPMW  0.29 ± 0.48
35. FSGHNC  0.299 ± 0.35
36. AASTNSGR  0.305 ± 0.68
37. SSVCFGYRAIGTIRHMFSKC  0.311 ± 0.33
38. GRMTILSVNSS  0.328 ± 0.46
39. ISRSASVGRGLGKYESRAVR  0.353 ± 1.2
40. CTLSYSCFLVVLSFYGQSSF  0.366 ± 0.24
41. THLVAPRSWLFIGPCRTKAS  0.385 ± 0.89
42. MDRIRFLFFW  0.448 ± 0.69
43. GKFRYHGRAMRHSARALIYF  0.451 ± 0.42
44. LLEALQNLGRLLITTPLVV  0.475 ± 0.84
45. SFLDMGFEAVNFGVVPSIMR  0.479 ± 0.48
46. RCPYSYHGYSVNNWGSAWT  0.487 ± 0.54
47. HPHVMLGILGHN  0.752 ± 0.85
48. LLSHQVTPSGRYSFSLCKSW  0.873 ± 0.84
49. QKAAVEQGLSRFGEGVTP  0.886 ± 0.66
50. LVTMLLNKYIVNRSHDGVRI  0.966 ± 0.49
51. KSTRWQIRSDALDVSERCFS  1 ± 0.76
52. YRSGSMLCNYPSRAVTVCWS  1.16 ± 0.38
53. CRRNGGTLMAGE  1.21 ± 0.76
54. SAASPFFFSDCGWPSGILNY  1.26 ± 0.67
55. VTDFVALFVIGTGPVVGLRW  1.27 ± 0.43
56. VRSPFSIHRRFLTLGIQEFS  1.4 ± 0.74
57. FMELEELCSCNERGLLWTPA  1.6 ± 0.27
58. PWASNIAFLNFPTCTDCDG  2.09 ± 0.28
59. LHLWCLQSFYMCWKCPPILE  2.57 ± 0.26
60. HHSVGSYRINCLV  3.39 ± 0.089
61. ITLKCCMSTRNHMCHR  3.75 ± 0.066
62. LFVGRGIAFVSFGPLALS  3.83 ± 0.08
63. DSLFTIYMNSISFR  5.83 ± 0.093
64. IIFWGLCICHPVLPTRGGWE  7.26 ± 0.084

With LKCLFLIAIFYIINCCSNLS the amyloid nucleation score was “inactive”.
With VLCLHWWLRTILGPLLAYAN the amyloid nucleation score was “inactive”.
For VCLRLARWILHQKHTYVYWY, the amyloid nucleation score was “inactive”.
In the case of KSTPEYRSKDSMCELHKDMC, the amyloid nucleation score is reported as “inactive”.
With QDAIMFGSDPLFYILLGLWG the amyloid nucleation score was “inactive”.
In the case of LSISRCSGRAV, the amyloid nucleation score is reported as “inactive”.
With DFYADIASVMSVPILCSLLG the amyloid nucleation score was “inactive”.
